In publication PMC7049166 (Proceedings of the National Academy of Sciences of the …, 2020):
Numbering of substitutions follows the chain as printed. In names and notes the source's numbering stands. Several values for one entry are separate records, joined by “and”; a condition that tells them apart may be missing. Identical values can stand only once.

Columns and labels:
SEC-MALS = biological target: the molecule itself; experiment: SEC-MALS
crystal structure = biological target: the molecule itself; experiment: crystal structure
[1] = biological target: the molecule itself; experiment: cell-based or functional assay
AUC = biological target: the molecule itself; experiment: AUC
cross-linking = biological target: the molecule itself; experiment: cross-linking

B1: S. cerevisiae short Mgm1 (s-Mgm1), truncated version, residues 184-881 (domain or fragment, UniProt P32266 184-881, looked up)
chain: MLNLTKQMIEIRTILNKVDSSSAHLTLPSIVVIGSQSSGKSSVLESIVGREFLPKGSNMVTRRPIELTLVNTPNSNNVTADFPSMRLYNIKDFKEVKRMLMELNMAVPTSEAVSEEPIQLTIKSSRVPDLSLVDLPGYIQVEAADQPIELKTKIRDLCEKYLTAPNIILAISAADVDLANSSALKASKAADPKGLRTIGVITKLDLVDPEKARSILNNKKYPLSMGYVGVITKTPSSINRKHLGLFGEAPSSSLSGIFSKGQHGQSSGEENTNGLKQIVSHQFEKAYFKENKKYFTNCQVSTKKLREKLIKILEISMSNALEPTSTLIQQELDDTSYLFKVEFNDRHLTPKSYLLNNIDVLKLGIKEFQEKFHRNELKSILRAELDQKVLDVLATRYWKDDNLQDLSSSKLESDTDMLYWHKKLELASSGLTKMGIGRLSTMLTTNAILKELDNILESTQLKNHELIKDLVSNTAINVLNSKYYSTADQVENCIKPFKYEIDLEERDWSLARQHSINLIKEELRQCNSRYQAIKNAVGSKKLANVMGYLENESNLQKETLGMSKLLLERGSEAIFLDKRCKVLSFRLKMLKNKCHSTIEKDRCPEVFLSAVSDKLTSTAVLFLNVELLSDFFYNFPIELDRRLTLLGDEQVEMFAKEDPKISRHIELQKRKELLELALEKIDSILVFKKSYKGVSKNL
In the case of B1, the “stoichiometry N” value (SEC-MALS) is reported as 2, the “stoichiometry N” value (crystal structure) is reported as 3 and the “stimulation of s-Mgm1 GTPase activity by liposomes with 10% or 20% cardiolipin” value [1] is reported as 8 fold.

B2: s-Mgm1 R712A/E751A mutant (domain or fragment, S. cerevisiae, UniProt P32266 184-881, looked up)
chain: B1 chain with R529A, E568A
B2: binds (AUC).

B3: HA-tagged s-Mgm1 S397C/E751C mutant (with 4CS mutations C341S, C676S, C709S, C763S) (domain or fragment, S. cerevisiae, UniProt P32266 184-881, looked up)
chain: B1 chain with C158S, S214C, C493S, C526S, E568C, C580S
B3 was tested, and the “stoichiometry N” value (cross-linking) was 2 and 3.
